Assay [1] addresses CD33 antigen (human) (UniProt P20138).
Assay [2] has the same target. The assay is described as follows: competition with 125I-labelled native antibody on HEL 92.1.7 cells; IC50 (reference) / IC50 (sample).
Assay [3] has the same target. This is another data set of the same source.
Assay [4] has the same target. This is another data set of the same source.
Assay [5] has the same target. This is another data set of the same source.
Assay [6] shares this target. This is another data set of the same source.
Assay [7] shares this target. The source holds these as a separate data set.
The target is the same in assay [8]. This is another data set of the same source.
Assay [9] shares this target. This is another data set of the same source.
Assay [10] shares this target. This is another data set of the same source.
Assay [11] has the same target. The source holds these as a separate data set.

Like-named read-outs stand apart in the source and are kept apart here.

B1: Conjugate of 4-formyl-3-methoxyphenoxyacetic acid (3) condensed with Calicheamicin N-acetyl gamma dimethyl hydrazide and h-P67.6 (antibody, V domains shown)
VH: EVQLVQSGAEVKKPGSSVKVSCKASGYTITDSNIHWVRQAPGQSLEWIGYIYPYNGGTDYNQKFKNRATLTVDNPTNTAYMELSSLRSEDTDFYYCVNGNPWLAYWGQGTLVTVSS
VL: DIQLTQSPSTLSASVGDRVTITCRASESLDNYGIRFLTWFQQKPGKAPKLLMYAASNQGSGVPSRFSGSGSGTEFTLTISSLQPDDFATYYCQQTKEVPWSFGQGTKVEVKR
modifications: drug-linker amide on lysine side chains, sites not stated; drug-linker amide on lysine side chains, sites not stated
Turning to B1, the In vitro IC50 (3H-thymidine incorporation) in [1] came to 0.3 ng/mL. The molecule further registered a Rel. Affinity in [2] of 0.81.

B2: Conjugate of 4-(2-acetyl-1-naphthalenyl)oxy! butanoic acid (20) condensed with Calicheamicin N-acetyl gamma dimethyl hydrazide and h-P67.6 (antibody, V domains shown)
VH: EVQLVQSGAEVKKPGSSVKVSCKASGYTITDSNIHWVRQAPGQSLEWIGYIYPYNGGTDYNQKFKNRATLTVDNPTNTAYMELSSLRSEDTDFYYCVNGNPWLAYWGQGTLVTVSS
VL: DIQLTQSPSTLSASVGDRVTITCRASESLDNYGIRFLTWFQQKPGKAPKLLMYAASNQGSGVPSRFSGSGSGTEFTLTISSLQPDDFATYYCQQTKEVPWSFGQGTKVEVKR
modifications: drug-linker amide on lysine side chains, sites not stated; drug-linker amide on lysine side chains, sites not stated
In the case of B2, the Rel. Affinity in assay [2] came to 0.5. In assay [3], this molecule returned an Ex vivo inhibition of colony formation of 76 % inhibition and an In vitro IC50 (3H-thymidine incorporation) of 0.061 ng/mL.

B3: Conjugate of 4-(4-formylphenoxy)butanoic acid (9) condensed with Calicheamicin N-acetyl gamma dimethyl hydrazide and h-P67.6 (antibody, V domains shown)
VH: EVQLVQSGAEVKKPGSSVKVSCKASGYTITDSNIHWVRQAPGQSLEWIGYIYPYNGGTDYNQKFKNRATLTVDNPTNTAYMELSSLRSEDTDFYYCVNGNPWLAYWGQGTLVTVSS
VL: DIQLTQSPSTLSASVGDRVTITCRASESLDNYGIRFLTWFQQKPGKAPKLLMYAASNQGSGVPSRFSGSGSGTEFTLTISSLQPDDFATYYCQQTKEVPWSFGQGTKVEVKR
modifications: drug-linker amide on lysine side chains, sites not stated; drug-linker amide on lysine side chains, sites not stated
B3: in assay [2], the Rel. Affinity amounted to 0.56. In [4], this molecule came in with an Ex vivo inhibition of colony formation of 98 % inhibition and an In vitro IC50 (3H-thymidine incorporation) of 0.52 ng/mL.

B4: Conjugate of 3-(2-oxoethoxy)benzoic acid (6) condensed with Calicheamicin N-acetyl gamma dimethyl hydrazide and h-P67.6 (antibody, V domains shown)
VH: EVQLVQSGAEVKKPGSSVKVSCKASGYTITDSNIHWVRQAPGQSLEWIGYIYPYNGGTDYNQKFKNRATLTVDNPTNTAYMELSSLRSEDTDFYYCVNGNPWLAYWGQGTLVTVSS
VL: DIQLTQSPSTLSASVGDRVTITCRASESLDNYGIRFLTWFQQKPGKAPKLLMYAASNQGSGVPSRFSGSGSGTEFTLTISSLQPDDFATYYCQQTKEVPWSFGQGTKVEVKR
modifications: drug-linker amide on lysine side chains, sites not stated; drug-linker amide on lysine side chains, sites not stated
For B4, in assay [2], the Rel. Affinity turned out to be 1.19. In assay [5], this molecule yielded an In vitro IC50 (3H-thymidine incorporation) of 0.69 ng/mL.

B5: Conjugate of 4-(4-acetylphenoxy)butanoic acid (7) condensed with Calicheamicin N-acetyl gamma dimethyl hydrazide and h-P67.6 (antibody, V domains shown)
VH: EVQLVQSGAEVKKPGSSVKVSCKASGYTITDSNIHWVRQAPGQSLEWIGYIYPYNGGTDYNQKFKNRATLTVDNPTNTAYMELSSLRSEDTDFYYCVNGNPWLAYWGQGTLVTVSS
VL: DIQLTQSPSTLSASVGDRVTITCRASESLDNYGIRFLTWFQQKPGKAPKLLMYAASNQGSGVPSRFSGSGSGTEFTLTISSLQPDDFATYYCQQTKEVPWSFGQGTKVEVKR
modifications: drug-linker amide on lysine side chains, sites not stated; drug-linker amide on lysine side chains, sites not stated
For the molecule B5, in assay [2], the Rel. Affinity turned out to be 0.75. In assay [6], this molecule returned an Ex vivo inhibition of colony formation of 96 % inhibition and an In vitro IC50 (3H-thymidine incorporation) of 0.098 ng/mL.

B6: Conjugate of 4-formylbenzoic acid (2) condensed with Calicheamicin N-acetyl gamma dimethyl hydrazide and h-P67.6 (antibody, V domains shown)
VH: EVQLVQSGAEVKKPGSSVKVSCKASGYTITDSNIHWVRQAPGQSLEWIGYIYPYNGGTDYNQKFKNRATLTVDNPTNTAYMELSSLRSEDTDFYYCVNGNPWLAYWGQGTLVTVSS
VL: DIQLTQSPSTLSASVGDRVTITCRASESLDNYGIRFLTWFQQKPGKAPKLLMYAASNQGSGVPSRFSGSGSGTEFTLTISSLQPDDFATYYCQQTKEVPWSFGQGTKVEVKR
modifications: drug-linker amide on lysine side chains, sites not stated; drug-linker amide on lysine side chains, sites not stated
Take B6: in assay [7], the Ex vivo inhibition of colony formation amounted to 63 % inhibition and the In vitro IC50 (3H-thymidine incorporation) is 4.8 ng/mL. The molecule also showed a Rel. Affinity in [2] of 0.99.

B7: Conjugate of 4-formylphenoxyacetic acid (1) condensed with Calicheamicin N-acetyl gamma dimethyl hydrazide and h-P67.6 (antibody, V domains shown)
VH: EVQLVQSGAEVKKPGSSVKVSCKASGYTITDSNIHWVRQAPGQSLEWIGYIYPYNGGTDYNQKFKNRATLTVDNPTNTAYMELSSLRSEDTDFYYCVNGNPWLAYWGQGTLVTVSS
VL: DIQLTQSPSTLSASVGDRVTITCRASESLDNYGIRFLTWFQQKPGKAPKLLMYAASNQGSGVPSRFSGSGSGTEFTLTISSLQPDDFATYYCQQTKEVPWSFGQGTKVEVKR
modifications: drug-linker amide on lysine side chains, sites not stated; drug-linker amide on lysine side chains, sites not stated
Regarding B7, in [8], the Ex vivo inhibition of colony formation is 95 % inhibition and the In vitro IC50 (3H-thymidine incorporation) is 0.23 ng/mL. This molecule also registered a Rel. Affinity in assay [2] of 0.65.

B8: Conjugate of 4-(4-acetylphenoxy)butanoic acid (7) condensed with calicheamicin gamma dimethyl hydrazide and h-P67.6 (antibody, V domains shown)
VH: EVQLVQSGAEVKKPGSSVKVSCKASGYTITDSNIHWVRQAPGQSLEWIGYIYPYNGGTDYNQKFKNRATLTVDNPTNTAYMELSSLRSEDTDFYYCVNGNPWLAYWGQGTLVTVSS
VL: DIQLTQSPSTLSASVGDRVTITCRASESLDNYGIRFLTWFQQKPGKAPKLLMYAASNQGSGVPSRFSGSGSGTEFTLTISSLQPDDFATYYCQQTKEVPWSFGQGTKVEVKR
modifications: drug-linker amide on lysine side chains, sites not stated; drug-linker amide on lysine side chains, sites not stated
Turning to B8, in assay [9], the In vitro IC50 (3H-thymidine incorporation) is 0.001 ng/mL. The same molecule showed a Rel. Affinity in assay [2] of 0.78.

B9: Conjugate of 4-acetylbenzenebutanoic acid (19) condensed with Calicheamicin N-acetyl gamma dimethyl hydrazide and h-P67.6 (antibody, V domains shown)
VH: EVQLVQSGAEVKKPGSSVKVSCKASGYTITDSNIHWVRQAPGQSLEWIGYIYPYNGGTDYNQKFKNRATLTVDNPTNTAYMELSSLRSEDTDFYYCVNGNPWLAYWGQGTLVTVSS
VL: DIQLTQSPSTLSASVGDRVTITCRASESLDNYGIRFLTWFQQKPGKAPKLLMYAASNQGSGVPSRFSGSGSGTEFTLTISSLQPDDFATYYCQQTKEVPWSFGQGTKVEVKR
modifications: drug-linker amide on lysine side chains, sites not stated; drug-linker amide on lysine side chains, sites not stated
In assay [2], B9 had a Rel. Affinity of 0.5. Further, in assay [10], the Ex vivo inhibition of colony formation was 99 % inhibition and the In vitro IC50 (3H-thymidine incorporation) worked out at 0.012 ng/mL.

B10: Conjugate of 4-(2-oxoethoxy)benzenepropanoic acid (5) condensed with Calicheamicin N-acetyl gamma dimethyl hydrazide and h-P67.6 (antibody, V domains shown)
VH: EVQLVQSGAEVKKPGSSVKVSCKASGYTITDSNIHWVRQAPGQSLEWIGYIYPYNGGTDYNQKFKNRATLTVDNPTNTAYMELSSLRSEDTDFYYCVNGNPWLAYWGQGTLVTVSS
VL: DIQLTQSPSTLSASVGDRVTITCRASESLDNYGIRFLTWFQQKPGKAPKLLMYAASNQGSGVPSRFSGSGSGTEFTLTISSLQPDDFATYYCQQTKEVPWSFGQGTKVEVKR
modifications: drug-linker amide on lysine side chains, sites not stated; drug-linker amide on lysine side chains, sites not stated
Turning to B10, the In vitro IC50 (3H-thymidine incorporation) in assay [11] is 2.22 ng/mL. The molecule further gave a Rel. Affinity in [2] of 1.09.
